Assay results reported in patent US11767351B2, “Recombinant lectin and uses thereof” (CITY OF HOPE, priority 2017, dated 2023).
Entries after “also recorded” stand apart in the source; their conditions may differ.

What was measured:
[1] = Glycan microarray (RayBio Glycan Array 100), whole array profile and L-rhamnose competition; assay type: binding; conditions: for carbohydrate-binding specificity compared with archived SHA: side by side on Glycan Array 100
Protocol: (§1) Glycan microarray analyses—Microarray analysis was performed according to the manufacturer recommendations using RayBio Glycan Array 100 (RayBiotech, Norcross Ga.) slides. Each slide contains four sub-microarrays printed with 100 synthetic glycans. Briefly, 200 μL of 0.1 mg/mL of both archived SHA and rSHA were dialyzed overnight at 4° C. against 1×PBS dialysis buffer to avoid contaminating samples with amines prior to biotinylation. Dialyzed samples were incubated with biotin-containing reaction solution at 22° C. for 30 min. Sub-arrays were blocked for 30 min at 22° C. After biotinylated SHA samples were diluted with 1×PBS, 400 μL of each sample was added to each sub-array. Slide #1 sub-arrays were incubated with 400 μL of 20 μg/mL (1×) or 2 μg/mL (0.1×) SHA, in the absence or presence of 0.2 M L-Rhamnose. Slide #2 sub-arrays were incubated with 400 μL of 20 μg/mL (1×) or 2 μg/mL of rSHA (0.1×), in the absence or presence of 0.2 M L-rhamnose. Slides were incubated for 16 h at 4° C. for highest intensities. Washing was performed according to the manufacturer's protocol, followed by incubation with Cy3 dye-conjugated streptavidin. The slides were incubated at 22° C. for 1 h with gentle shaking, then washed multiple times as recommended. The signals were visualized using an Agilent DNA microarray scanner (Model G2505C; Agilent, Santa Clara, Calif.) at 532 nm for Cy3. Data extraction and analysis was performed after subtraction of the background and normalization to the internal references provided by the manufacturer, using an ImageJ Protein Array Analyzer software (28).
(§2) Therefore, a novel construct that encoded an E. coli codon-optimized, His-tagged, Trx-SMT3 (SUMO family protein)-SHA(A108E) fusion protein was expressed. […] The glycan binding was measured using two distinct concentrations of biotin-labeled SHAs (1×: 20 μg/ml and 0.1×: 2 μg/ml) in the absence and presence of 0.2 M L-rhamnose as a competitive inhibitor.

[2] = Glycan microarray (RayBio Glycan Array 100); assay type: binding; conditions: glycans listed in Table 4
Protocol: as §1, with “Washing was performed according to the manufacturer's protocol, followed by incubation with Cy3 dye-conjugated streptavidin. The slides were incubated at 22° C. for 1 h with gentle shaking, then washed multiple times as recommended. The signals were visualized using an Agilent DNA microarray scanner (Model G2505C; Agilent, Santa Clara, Calif.) at 532 nm for Cy3. Data extraction and analysis was performed after subtraction of the background and normalization to the internal references provided by the manufacturer, using an ImageJ Protein Array Analyzer software (28).” left out
as §2

[3] = Glycan microarray (RayBio Glycan Array 100); assay type: binding; conditions: biotin-labeled SHAs 20 μg/ml (1×) and 2 μg/ml (0.1×), absence of L-rhamnose
[4] = Glycan microarray (RayBio Glycan Array 100); assay type: binding; conditions: biotin-labeled SHAs 20 μg/ml (1×) and 2 μg/ml (0.1×), absence of L-rhamnose; remark: listed apart in the source
[5] = Glycan microarray (RayBio Glycan Array 100); assay type: binding; conditions: biotin-labeled SHAs 20 μg/ml (1×) and 2 μg/ml (0.1×), absence of L-rhamnose; remark: listed apart in the source
[6] = Glycan microarray (RayBio Glycan Array 100); assay type: binding; conditions: biotin-labeled SHAs 20 μg/ml (1×) and 2 μg/ml (0.1×), absence of L-rhamnose; remark: listed apart in the source
[7] = Glycan microarray (RayBio Glycan Array 100); assay type: binding; conditions: biotin-labeled SHAs 20 μg/ml (1×) and 2 μg/ml (0.1×), absence of L-rhamnose; remark: listed apart in the source
[8] = Glycan microarray (RayBio Glycan Array 100); assay type: binding; conditions: biotin-labeled SHAs 20 μg/ml (1×) and 2 μg/ml (0.1×), absence of L-rhamnose; remark: listed apart in the source
[9] = Glycan microarray (RayBio Glycan Array 100); assay type: binding; conditions: biotin-labeled SHAs 20 μg/ml (1×) and 2 μg/ml (0.1×), absence of L-rhamnose; remark: listed apart in the source
[10] = Solubility of recombinant SHA proteins; assay type: physicochemical; conditions: expressed in E. coli
Protocol: Due to solubility issues various fusion proteins of the recombinant SHA were prepared and expressed in E. coli. Of those, a yeast SUMO(SMT3)-fusion protein was successfully purified for comparing carbohydrate-binding specificity with that of archived SHA. Briefly, SMT3-fused SHA(A108E) was prepared by insertion at the SMT3 and Ulp1 cleavage sites of pET32b/SHA(A108E). E. Cloni® (Lucigen) was transformed by pET32b/SMT3-SHA(A108E). […] SHA(A108E) was cleaved off from SMT3 bound to the column by incubating with UPL1. The resulting SHA(A108E) was purified by gum arabic gels. The authenticity of SHA(A108E) was confirmed by SDS-PAGE and glycan microarray analyses.
as §2, with “expressed. This protein was refolded on the nickel NTA column in the presence of D-galactose, and soluble recombinant SHA (rSHA) was cleaved off from the Trx-SMT3 portion using His-tagged Ulp1 (8). The purified rSHA is shown in FIG. 6C, together with archived SHA.” for “expressed.”

[11] = Glycan microarray (RayBio Glycan Array 100); assay type: binding; conditions: biotin-labeled SHAs 20 μg/ml (1×) and 2 μg/ml (0.1×), absence of L-rhamnose; remark: listed apart in the source
[12] = Glycan microarray (RayBio Glycan Array 100); assay type: binding; conditions: biotin-labeled SHAs 20 μg/ml (1×) and 2 μg/ml (0.1×), absence of L-rhamnose; remark: listed apart in the source
[13] = Glycan microarray (RayBio Glycan Array 100); assay type: binding; conditions: biotin-labeled SHAs 20 μg/ml (1×) and 2 μg/ml (0.1×), absence of L-rhamnose; remark: listed apart in the source
[14] = Glycan microarray (RayBio Glycan Array 100); assay type: binding; conditions: biotin-labeled SHAs 20 μg/ml (1×) and 2 μg/ml (0.1×), absence of L-rhamnose; remark: listed apart in the source

B1: rSHA: recombinant SHA(A108E) expressed in E. coli, cleaved from Trx-SMT3 fusion; SEQ ID NO: 25 (protein)
chain: ARTVCYAAHVEGIGWQGAVCDGAVAGTTGQSRRMEAAVIATSGTGGVCANAHLADIGWQGWACAADGKAVTVGTTGQSRRMEALGLQVGNGSVAAQAHVADYGWLNAEGGNPVYVGTTGQSRRMEAVRIWV
modifications: recombinant SHA
binding to all glycans, except α-Rha, in the presence of L-rhamnose ([1]; 0.2 M L-rhamnose as competitive inhibitor): competitively inhibited | carbohydrate-binding specificity compared with archived SHA [1]: identical carbohydrate-binding specificities; also recorded: same glycan specificity profile | carbohydrate-binding specificity compared with archived SHA ([1]; listed as SHA(A108E)): same carbohydrate-binding specificity | binding to the remaining 89 chip-immobilized glycans [2]: did not bind | binding signal to Blood B antigen tetrasaccharide [3]: Strong signals | binding signal to Blood B antigen trisaccharide [4]: Strong signals | binding to Gal-α-1,4-Gal-β-1,4-GlcNAc-β- [5]: weaker, but still significant, binding | binding to GaINAc-β-1,3-Gal-β-1,4-Glc-β- [6]: weaker, but still significant, binding | binding signal to α-Rha- [7]: Strong signals | binding signal to Gal-α-1,4-Gal-β-1,3-GlcNAc-β- [8]: Strong signals | binding signal to Gal-α-1,3-Gal-β-1,3-GlcNAc-β- [9]: Strong signals | solubility [10]: soluble | binding signal to β-Gal- [11]: Strong signals | binding signal to Gal-α-1,3-Gal-β-1,4-Glc-β- [12]: Strong signals | binding signal to Gal-α-1,3-Gal-β- [13]: Strong signals | binding to Gal-α-1,4-Gal-β-1,4-Glc-β- [14]: weaker, but still significant, binding
